According to article PMC4491233:

Molecular target: GST-MSY3 phosphorylated in vitro by Akt (UniProt Q9JKB3)
Test: EMSA
Conditions: prior phosphorylation by Akt; binding reduced more than 50%; EMSA per earlier protocol (ref 16), 8% non-denaturing polyacrylamide gel; binding buffer, pH and temperature not given. Kinase pre-treatment: 10 mM MgCl2, 2 mM …

GST-MSY3 phosphorylated in vitro by Akt, sequence (Q9JKB3 whole entry): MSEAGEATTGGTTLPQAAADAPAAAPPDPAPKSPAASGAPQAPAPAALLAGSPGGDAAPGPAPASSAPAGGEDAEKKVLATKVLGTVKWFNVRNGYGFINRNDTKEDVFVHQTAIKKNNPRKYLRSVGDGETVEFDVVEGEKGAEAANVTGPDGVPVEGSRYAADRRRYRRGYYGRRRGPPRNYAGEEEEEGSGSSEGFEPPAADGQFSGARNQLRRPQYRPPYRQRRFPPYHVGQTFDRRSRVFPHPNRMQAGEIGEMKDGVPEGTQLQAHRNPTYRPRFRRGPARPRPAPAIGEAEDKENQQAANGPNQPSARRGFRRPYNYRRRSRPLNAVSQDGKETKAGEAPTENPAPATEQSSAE

In the case of “TCTTGATGTGCAGCAACAGCT (double strand) [MYOwt (myogHCE)]”, the binding signal (% of unphosphorylated GST-MSY3) is reported as less than 50.
